Results on 60 molecules are retold here after US20160347808A1 (IMMATICS BIOTECHNOLOGIES, published 2016).

Square brackets hold non-standard residues; d marks the D form. Ends that are not written are not given here. pS = N[C@@H](COP(=O)(O)O)C(=O)O Bounds are passed on as bounds.

For this experiment, the target named is T1, HLA-A*02:01 (peptide-receptive MHC class I monomer from UV-ligand exchange) (human).
T1 construct: Monomers were captured on streptavidin-coated plates
Briefly: UV-exchange ELISA (anti-b2m); exchange yield grade: + >=10%, ++ >=20%, +++ >=50%, ++++ >=75%. The source says: Candidate peptides for T cell based therapies according to the present invention were further tested for their MHC binding capacity (affinity). The individual peptide-MHC complexes were produced by UV-ligand exchange, where a UV-sensitive peptide is cleaved upon UV-irradiation, and exchanged with the peptide of interest as analyzed. Only peptide candidates that can effectively bind and stabilize the peptide-receptive MHC molecules prevent dissociation of the MHC complexes. To determine the yield of the exchange reaction, an ELISA was performed based on the detection of the light chain (β2m) of stabilized MHC complexes. The assay was performed as generally described in Rodenko et al. (Rodenko et al., 2006).
96 well MAXISorp plates (NUNC) were coated over night with 2 ug/ml streptavidin in PBS at room temperature, washed 4× and blocked for 1 h at 37° C. in 2% BSA containing blocking buffer. Refolded HLA-A*02:01/MLA-001 monomers served as standards, covering the range of 15-500 ng/ml. Peptide-MHC monomers of the UV-exchange reaction were diluted 100 fold in blocking buffer. Samples were incubated for 1 h at 37° C., washed four times, incubated with 2 ug/ml HRP conjugated anti-β2m for 1 h at 37° C., washed again and detected with TMB solution that is stopped with […]. Absorption was measured at 450 nm. Candidate peptides that show a high exchange yield (preferably higher than 50%, most preferred higher than 75%) are generally preferred for a generation and production of antibodies or fragments thereof, and/or T cell receptors or fragments thereof, as they show sufficient avidity to the MHC molecules and prevent dissociation of the MHC complexes.
(In general: ELISA stands for enzyme-linked immunosorbent assay.)

Take SLADRLIGV [peptide SLADRLIGV (SEQ ID NO 25)]: the peptide exchange yield is at least 75%.
In the case of ALSNVIHKV [peptide ALSNVIHKV (SEQ ID NO 40)], the peptide exchange yield lay within 20 to 50%.
With ALAELLHGA [peptide ALAELLHGA (SEQ ID NO 45)] the figure was 50 to 75%.
For the molecule ALWEKNTHL [peptide ALWEKNTHL (SEQ ID NO 33)], the peptide exchange yield is 50 to 75%.
With VLDGVLMEL [peptide VLDGVLMEL (SEQ ID NO 24)] the figure was 50 to 75%; with SLLDENNVSSYL [peptide SLLDENNVSSYL (SEQ ID NO 184)], 50 to 75%.
For ALDSSNSMQTI [peptide ALDSSNSMQTI (SEQ ID NO 52)], the peptide exchange yield lay in the range of 20 to 50%.
As to SLESKLTSV [peptide SLESKLTSV (SEQ ID NO 44)], the peptide exchange yield fell in the range of 50 to 75%.
Consider FLVDGPRVQL [peptide FLVDGPRVQL (SEQ ID NO 188)], for which the peptide exchange yield was in the range of 50 to 75%.
Then RLAELTVDEFL [peptide RLAELTVDEFL (SEQ ID NO 4)], with 50 to 75%; and KLYERCEVV [peptide KLYERCEVV (SEQ ID NO 47)], with 20 to 50%.
Turning to TLDAAQPRV [peptide TLDAAQPRV (SEQ ID NO 43)], the peptide exchange yield lay within 20 to 50%.
In the case of ILLDDNMQIRL [peptide ILLDDNMQIRL (SEQ ID NO 174)], the peptide exchange yield is at least 75%.
With QMLDVAIRV [peptide QMLDVAIRV (SEQ ID NO 29)] the figure was 50 to 75%.
Take GLSSAYGGL [peptide GLSSAYGGL (SEQ ID NO 30)]: the peptide exchange yield was in the range of 10 to 20%.
Turning to TLQEVVTGV [peptide TLQEVVTGV (SEQ ID NO 183)], the peptide exchange yield lay within 50 to 75%.
GLLESPSIFNFTA [peptide GLLESPSIFNFTA (SEQ ID NO 36)]: the peptide exchange yield is 50 to 75%.
With QVWEIQHTV [peptide QVWEIQHTV (SEQ ID NO 51)], the peptide exchange yield lay in the range of 20 to 50%.
Take TLLGGKEAQALGV [peptide TLLGGKEAQALGV (SEQ ID NO 175)]: the peptide exchange yield was 50 to 75%.
With AMAEMVLQV [peptide AMAEMVLQV (SEQ ID NO 190)] the figure was 50 to 75%.
FLDANGHFV [peptide FLDANGHFV (SEQ ID NO 23)]: the peptide exchange yield fell in the range of 50 to 75%.
On to NLLEKENYL [peptide NLLEKENYL (SEQ ID NO 57)], for which the peptide exchange yield was 50 to 75%.
For the molecule WLFDDGGLTL [peptide WLFDDGGLTL (SEQ ID NO 5)], the peptide exchange yield was at least 75%.
As for QLFSEIHNL [peptide QLFSEIHNL (SEQ ID NO 191)], the peptide exchange yield is at least 75%.
Then FLDASDPAL [peptide FLDASDPAL (SEQ ID NO 48)], with 20 to 50%; and TLMAEMHVV [peptide TLMAEMHVV (SEQ ID NO 50)], with 50 to 75%.
With SILDDSFKL [peptide SILDDSFKL (SEQ ID NO 42)] the figure was at least 75%; with KLGDLMVLL [peptide KLGDLMVLL (SEQ ID NO 173)], 50 to 75%.
In the case of LLYGKYVSV [peptide LLYGKYVSV (SEQ ID NO 31)], the peptide exchange yield lay within 50 to 75%.
Turning to ALLNGEYLLAA [peptide ALLNGEYLLAA (SEQ ID NO 54)], the peptide exchange yield is 50 to 75%.
With ALLPRYFFL [peptide ALLPRYFFL (SEQ ID NO 2)] the figure was 20 to 50%; with VLYTGVVRV [peptide VLYTGVVRV (SEQ ID NO 185)], 50 to 75%; with YLFREPATI [peptide YLFREPATI (SEQ ID NO 178)], 20 to 50%.
Then SLAPTPVSA [peptide SLAPTPVSA (SEQ ID NO 38)], with 20 to 50%; and ALTEIQEFI [peptide ALTEIQEFI (SEQ ID NO 28)], with at least 75%; and KMSEKILLL [peptide KMSEKILLL (SEQ ID NO 186)], with 50 to 75%.
For the molecule VLFTDEGVPKFL [peptide VLFTDEGVPKFL (SEQ ID NO 56)], the peptide exchange yield is 20 to 50%.
Then KLLDLTVRI [peptide KLLDLTVRI (SEQ ID NO 35)], with 50 to 75%; and ALAAARVEL [peptide ALAAARVEL (SEQ ID NO 17)], with 50 to 75%.
Then GLIDEVMVL (also called CYP2W1-001) [peptide GLIDEVMVL (SEQ ID NO 22)], with 50 to 75%; and RLIPDTLYSV [peptide RLIPDTLYSV (SEQ ID NO 3)], with at least 75%.
With SLNKWIFTV [peptide SLNKWIFTV (SEQ ID NO 182)] the figure was at least 75%.
In the case of GLASKENFSNVSL [peptide GLASKENFSNVSL (SEQ ID NO 26)], the peptide exchange yield lay in the range of 20 to 50%.
Then RLYTKLLNEA [peptide RLYTKLLNEA (SEQ ID NO 19)], with 50 to 75%.
Then FLLGSEIKL [peptide FLLGSEIKL (SEQ ID NO 53)], with 50 to 75%; and NLFDLGGQYLRV [peptide NLFDLGGQYLRV (SEQ ID NO 181)], with 50 to 75%; and GLDDRYSLV [peptide GLDDRYSLV (SEQ ID NO 46)], with 50 to 75%.
Consider ILDDSFKLL [peptide ILDDSFKLL (SEQ ID NO 41)], for which the peptide exchange yield lay within 20 to 50%.
With ILLEKSVSV [peptide ILLEKSVSV (SEQ ID NO 34)] the figure was 50 to 75%.

B1: peptide RLLJPLSSA (SEQ ID NO 179) (peptide)
peptide: RLL[pS]PLSSA
notes: Printed with J for phosphoserine; the plain residue at position 4 is serine
Regarding B1, the peptide exchange yield was in the range of 50 to 75%.
LLADEDSSYL [peptide LLADEDSSYL (SEQ ID NO 27)]: the peptide exchange yield was in the range of 20 to 50%.
On to ALLQGAIESV [peptide ALLQGAIESV (SEQ ID NO 177)], for which the peptide exchange yield was in the range of 50 to 75%.
For the molecule FLSSLKGGLL [peptide FLSSLKGGLL (SEQ ID NO 18)], the peptide exchange yield was 50 to 75%.
With AISEVIGKITA [peptide AISEVIGKITA (SEQ ID NO 189)] the figure was 50 to 75%; with GLHNVVYGI [peptide GLHNVVYGI (SEQ ID NO 187)], 50 to 75%; with KLNTETFGV [peptide KLNTETFGV (SEQ ID NO 32)], 20 to 50%.
Then VLIDHRWVL [peptide VLIDHRWVL (SEQ ID NO 21)], with 50 to 75%; and YLKDGDVML [peptide YLKDGDVML (SEQ ID NO 20)], with 50 to 75%; and RTLDKVLEV [peptide RTLDKVLEV (SEQ ID NO 176)], with 20 to 50%.
Turning to GLFAGLGGAGA [peptide GLFAGLGGAGA (SEQ ID NO 37)], the peptide exchange yield was 50 to 75%.
